From US20150309012A1 (BAXTER INTERNATIONAL, published 2015)

What was measured:
Experiment in all cases: cell-based or functional assay
[1] = target: T1, oxMIF on the cell surface of U937 human monocytic cells (human, UniProt P14174 2-115, oxidised isoform (oxMIF); residues not stated)
[2] = target: T1, oxMIF on the cell surface of U937 human …; remark: listed apart in the source
[3] = target: T1, oxMIF on the cell surface of U937 human …; remark: listed apart in the source

T1 sequence (P14174 2-115): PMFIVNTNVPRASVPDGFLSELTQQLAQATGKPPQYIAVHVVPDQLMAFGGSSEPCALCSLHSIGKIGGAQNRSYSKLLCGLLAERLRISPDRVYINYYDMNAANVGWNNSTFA

IC50 (inhibition of cell migration, chemokinesis assay, MI against log RAM9) [1]: 0.8 nM
IC 50 of migration inhibition of U937 cells, antibody in the inserts (upper chamber), plate 2 [2]: 1.1 nM
IC50 of inhibition of random migration (chemokinesis) of U937 cells, Transwell, antibody in lower chamber; 25 experiments (38 plates) [3]: 0.8 nM
IC50 of inhibition of random migration (chemokinesis) of U937 cells, Transwell, antibody in lower chamber; duplicate plates (26 plates from 13 experiments) [3]: 0.8 nM
B1: anti-oxMIF antibody RAM9 (antibody, human IgG1, kappa, V domains shown)
VH: EVQLLESGGGLVQPGGSLRLSCAASGFTFSIYSMNWVRQAPGKGLEWVSSIGSSGGTTYYADSVKGRFTISRDNSKNTLYLQMNSLRAEDTAVYYCAGSQWLYGMDVWGQGTTVTVSS
VL: DIQMTQSPSSLSASVGDRVTITCRSSQRIMTYLNWYQQKPGKAPKLLIFVASHSQSGVPSRFRGSGSETDFTLTISGLQPEDSATYYCQQSFWTPLTFGGGTKVEIKR
